Results: patent US20250186614A1, “COMPACT DRUG RESPONSIVE DOMAINS FOR REGULATION OF FUNCTION/ABUNDANCE AND DELIVERY OF POLYPEPTIDE PAYLOADS” (OBSIDIAN THERAPEUTICS, INC., priority 2022, published 2025)
Substitutions are numbered along the chain they refer to. Names may count otherwise.

B1: FKBP-064: FKBP13 DRD Q72R, Q84E, A117H, R102L; SEQ ID NO: 20 (protein)
chain: HCPIKSRKGDVLHMHYTGKLEDGTEFDSSLPRNQPFVFSLGTGEVIKGWDQGLLGMCEGEKLKLVIPSELGYGERGHPPKIPGGATLVFEVELLKIER
modifications: Description of sequence: FKBP13-AcGFP-mCherry Fusion; Construct Name: FKBP-064; FKBP13 DRD in Construct : FKBP13 (mutated to match FKBP12 active site - Q72R Q84E A117H) (DRD - R102L)
B2: FKBP-084: FKBP13 trunc2 DRD Q72R, Q84E, A117H, M54A; SEQ ID NO: 34 (protein)
chain: PIKSRKGDVLHAHYTGKLEDGTEFDSSLPRNQPFVFSLGTGEVIKGWDQGLLGMCEGEKRKLVIPSELGYGERGHPPKIPGGATLVFEVELLKIER
modifications: truncated (trunc2); Description of sequence: FKBP13-AcGFP-mCherry Fusion; Construct Name: FKBP-084; FKBP13 DRD in Construct : FKBP13 trunc2 (mutated to match FKBP12 active site Q72R Q84E A117H) (DRD - M54A)
B3: FKBP-085: FKBP13 trunc1WT DRD Q72R, Q84E, A117H; SEQ ID NO: 35 (protein)
chain: CPIKSRKGDVLHMHYTGKLEDGTEFDSSLPRNQPFVFSLGTGEVIKGWDQGLLGMCEGEKRKLVIPSELGYGERGHPPKIPGGATLVFEVELLKIER
modifications: truncated (trunc1); Description of sequence: FKBP13-AcGFP-mCherry Fusion; Construct Name: FKBP-085; FKBP13 DRD in Construct : FKBP13 trunc1WT (mutated to match FKBP12 active site Q72R Q84E A117H) (DRD - WT)
B4: FKBP-094: FKBP13 DRD Q72R, Q84E, A117H, P107S; SEQ ID NO: 44 (protein)
chain: B1 chain with L62R, P67S
modifications: Description of sequence: FKBP13-AcGFP-mCherry Fusion; Construct Name: FKBP-094; FKBP13 DRD in Construct : FKBP13 (mutated to match FKBP12 active site Q72R Q84E A117H) (DRD - P107S)
B5: FKBP-095: FKBP13 DRD Q72R, Q84E, A117H, P122S; SEQ ID NO: 45 (protein)
chain: B1 chain with L62R, P82S
modifications: Description of sequence: FKBP13-AcGFP-mCherry Fusion; Construct Name: FKBP-095; FKBP13 DRD in Construct : FKBP13 (mutated to match FKBP12 active site Q72R Q84E A117H) (DRD - P122S)
B6: FKBP-097: FKBP13 DRD Q72R, Q84E, A117H, E100S; SEQ ID NO: 47 (protein)
chain: B1 chain with E60S, L62R
modifications: Description of sequence: FKBP13-AcGFP-mCherry Fusion; Construct Name: FKBP-097; FKBP13 DRD in Construct : FKBP13 (mutated to match FKBP12 active site Q72R Q84E A117H) (DRD - E100S)
B7: FKBP-128: FKBP13 DRD Q72R, Q84E, A117W, H53L; SEQ ID NO: 78 (protein)
chain: B1 chain with H13L, L62R, H77W
modifications: Description of sequence: FKBP13-AcGFP-mCherry Fusion; Construct Name: FKBP-128; FKBP13 DRD in Construct : FKBP13 (mutated to match FKBP12 active site Q72R Q84E A117W) (DRD H53L)
B8: FKBP-129: FKBP13 DRD Q72R, Q84E, A117W, E98L; SEQ ID NO: 79 (protein)
chain: B1 chain with E58L, L62R, H77W
modifications: Description of sequence: FKBP13-AcGFP-mCherry Fusion; Construct Name: FKBP-129; FKBP13 DRD in Construct : FKBP13 (mutated to match FKBP12 active site Q72R Q84E A117W) (DRD E98L)
B9: FKBP-124: FKBP13 DRD Q72R, Q84E, A117H, G49S; SEQ ID NO: 74 (protein)
chain: B1 chain with G9S, L62R
modifications: Description of sequence: FKBP13-AcGFP-mCherry Fusion; Construct Name: FKBP-124; FKBP13 DRD in Construct : FKBP13 (mutated to match FKBP12 active site Q72R Q84E A117H) (DRD G49S)
B10: FKBP-125: FKBP13 DRD Q72R, Q84E, A117W, D62S; SEQ ID NO: 75 (protein)
chain: B1 chain with D22S, L62R, H77W
modifications: Description of sequence: FKBP13-AcGFP-mCherry Fusion; Construct Name: FKBP-125; FKBP13 DRD in Construct : FKBP13 (mutated to match FKBP12 active site Q72R Q84E A117W) (DRD D62S)
B11: FKBP-123: FKBP13 DRD Q72R, Q84E, A117W, G49S; SEQ ID NO: 73 (protein)
chain: B1 chain with G9S, L62R, H77W
modifications: Description of sequence: FKBP13-AcGFP-mCherry Fusion; Construct Name: FKBP-123; FKBP13 DRD in Construct : FKBP13 (mutated to match FKBP12 active site Q72R Q84E A117W) (DRD G49S)
B12: FKBP-127: FKBP13 DRD Q72R, Q84E, A117W, F76Q; SEQ ID NO: 77 (protein)
chain: B1 chain with F36Q, L62R, H77W
modifications: Description of sequence: FKBP13-AcGFP-mCherry Fusion; Construct Name: FKBP-127; FKBP13 DRD in Construct : FKBP13 (mutated to match FKBP12 active site Q72R Q84E A117W) (DRD F76Q)
B13: FKBP-121: FKBP13 DRD Q72R, Q84E, A117W, I136V; SEQ ID NO: 71 (protein)
chain: B1 chain with L62R, H77W, I96V
modifications: Description of sequence: FKBP13-AcGFP-mCherry Fusion; Construct Name: FKBP-121; FKBP13 DRD in Construct : FKBP13 (mutated to match FKBP12 active site Q72R Q84E A117W) (DRD I136V)
B14: FKBP-126: FKBP13 DRD Q72R, Q84E, A117H, D62S; SEQ ID NO: 76 (protein)
chain: B1 chain with D22S, L62R
modifications: Description of sequence: FKBP13-AcGFP-mCherry Fusion; Construct Name: FKBP-126; FKBP13 DRD in Construct : FKBP13 (mutated to match FKBP12 active site Q72R Q84E A117H) (DRD D62S)
B15: FKBP-130: FKBP13 DRD Q72R, Q84E, A117W, P107K; SEQ ID NO: 80 (protein)
chain: B1 chain with L62R, P67K, H77W
modifications: Description of sequence: FKBP13-AcGFP-mCherry Fusion; Construct Name: FKBP-130; FKBP13 DRD in Construct : FKBP13 (mutated to match FKBP12 active site Q72R Q84E A117W) (DRD P107K)
B16: FKBP-122: FKBP13 DRD Q72R, Q84E, A117H, I136V; SEQ ID NO: 72 (protein)
chain: B1 chain with L62R, I96V
modifications: Description of sequence: FKBP13-AcGFP-mCherry Fusion; Construct Name: FKBP-122; FKBP13 DRD in Construct : FKBP13 (mutated to match FKBP12 active site Q72R Q84E A117H) (DRD I136V)

Tested on: Jurkat cells
Experiment: Tacrolimus dose response of FKBP13-AcGFP-mCherry constructs stably transduced into Jurkat cells, GFP MFI by flow cytometry
Format: cell-based
Conditions: tacrolimus dose response, Jurkat cells stably transduced (FIG. 4); Table 4
Method: The regulation of AcGFP, from FKBP13-AcGFP-mCherry constructs, in Jurkat cells, was also studied. Jurkat Clone E6-1 cells were cultured in standard media (RPMI+GlutaMAX Supplement (Life Technologies, Carlsbad, CA Cat #61870127), Fetal Bovine Serum (FBS) (Life Technologies Cat #10-082-147)). Jurkat cells were transduced with lentivirus produced with each of FKBP-039, FKBP-040, FKBP-041, FKBP-042, FKBP-043, FKBP-044, or FKBP-045 constructs. Jurkat cells were transduced until they were 10-25% positive, as determined on day 5 post-transduction, by using mCherry as a transduction marker. […] The Geometric Mean Fluorescent Intensity (MFI) of GFP expression in mCherry+ cells was plotted and dose response curve fits were performed using Prism Software (San Diego, CA).
FKBP-091 was used as a comparative construct.
FIGS. 22-38 show the results of characterization of FKBP-160-292. […] FKBP-091 and FKBP-117 was used as a comparative control for FKBP-160-FKBP-255. FKBP-195 was used as a comparative control for FKBP-256-FKBP-275. FKBP-117, FPBP-195 and FKBP-251 were used as a comparative control for FKBP-276-FKBP-292.
FKBP mutants were cloned in a manner to make a fusion protein with AcGFP in order to assess FKBP mutant regulation by using AcGFP expression as a readout. […] Further iterative FKBP mutants (FKBP-256-FKBP-292) were constructed from these initial combinatorial mutants to see if we could further improve FKBP DRD properties.

In the case of B1, the Fold Change is reported as 21.6.

Same assay, conditions: tacrolimus dose response, Jurkat cells stably transduced (FIG. 10); Table 5

In order of falling “Fold Change” value:
1. B6  36.75
2. B5  31.4
3. B3  16.09
4. B4  13.5
5. B2  12.42

Same assay, conditions: tacrolimus, Jurkat cells stably transduced; Table 6

In order of rising “Fold Change” value:
1. B12  10.25
2. B15  14.40
3. B8  17.11
4. B16  22.51
5. B14  25.70
6. B13  28.35
7. B10  29.07
8. B7  31.75
9. B9  40.13
10. B11  48.38
